What was measured:
[1] = molecular target: T1, MapADO (Moesziomyces aphidis, UniProt W3VHW6); experiment: continuous UV-Vis initial rate of vanillin formation ([…] nm); format: biochemical; details: O2 co-substrate; 10 mM potassium phosphate pH 7.4, 30 °C, 2% EtOH; initial-rate value taken (endpoint HPLC fit also printed in the 2nd table, row 3)
T1 construct: gene PaG_05861; codon-optimized, pET-28a, His6 tag, E. coli BL21 (DE3), IMAC purified, FeCl2 supplemented

[2] = molecular target: T2, PAD (Heyndrickxia coagulans, UniProt A0A0C5C6Z1); experiment: whole-cell decarboxylation to 4-vinylguaiacol, HPLC; format: cell-based; details: co-expressed with MapADO; 200 mM phosphate pH 7.4, 30 °C
T2 construct: gene SB48_HM08orf00536; co-expressed with MapADO on one pET28 vector, E. coli BL21 (DE3) resting cells
T2 sequence (A0A0C5C6Z1 1-167): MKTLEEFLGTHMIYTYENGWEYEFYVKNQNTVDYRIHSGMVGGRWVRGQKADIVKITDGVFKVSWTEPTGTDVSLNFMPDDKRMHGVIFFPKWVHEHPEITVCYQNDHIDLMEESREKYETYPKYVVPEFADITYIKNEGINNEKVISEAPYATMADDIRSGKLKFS

[3] = substrate: C=Cc1ccc(O)c(OC)c1; experiment: endpoint HPLC-UV; format: biochemical, Moesziomyces aphidis; details: O2 co-substrate, 10 mM potassium phosphate pH 7.4, 30 °C, 2% EtOH, endpoint measurement (authors: endpoint overestimates kcat and KM)
Text: (§1) endpoint HPLC-UV on MapADO

[4] = substrate: Oc1ccc(/C=C/c2cc(O)cc(O)c2)cc1; experiment: endpoint HPLC-UV; format: biochemical, Moesziomyces aphidis; details: O2 co-substrate, 10 mM potassium phosphate pH 7.4, 30 °C, 2% EtOH, endpoint measurement (authors: endpoint overestimates kcat and KM)
Text: as §1

[5] = substrate: COc1cc(/C=C/CO)ccc1O; experiment: UV-Vis spectrophotometric initial rate; format: biochemical, Moesziomyces aphidis; details: O2 co-substrate, 10 mM potassium phosphate pH 7.4, 30 °C, 2% EtOH
Text: UV-Vis spectrophotometric initial rate on MapADO

CC=Cc1ccc(O)c(OC)c1 [1b, isoeugenol]
Km [1]: 118 ± 13 µM

COc1cc(/C=C/C(=O)O)ccc1O [2a, ferulic acid]
whole-cell decarboxylation to 4-vinylguaiacol, HPLC [2]: The decarboxylation was effective and resulted in the rapid accumulation of 2b

B1: MapADO (Moesziomyces aphidis) (protein)
chain: MAPTATQEPVPVPVTSKAAPSHGYVHPTDILPSGWPTATDLSGGAQPRRFEGTIFDVMTRGTIPKELHGTFYRIMPDYAQPPTYYKGGELNAPIDGDGTVAAFRFKDGKVDYRQRFVETDRFKVERRARKSMYGLYRNPYTHHPCVRQTVESTANTNVVMHAGRFLAMKENGNAYEMDPHTLKTLGYNPFNLPSKTMTAHPKQCSVTGNLVGFGYEAKGLATKDVYYFEVDPSGKVVRDLWLEAPWCAFIHDCALTPNYLVLMLWPFEANLERMKAGGHHWAYDYTKPITWITIPRGAKSKDEVKYWHWKNGMPIHTASGFEDEQGRIIIDSSLVHGNAFPFFPPDSDEQKKKQEADGTPKAQFVRWTIDPRKDNNEQLPDPEVILDTPSEFPQIDNRFMGVEYSSAFINVFVPDRSDGNKNVFQGLNGLAHYKRKEGTTEWYYAGDNCLIQEPVFSPRSKDAPEGDGFVLAIVDRLDLNRSEVVVIDTRDFTKAVAAVQLPFAIRSGIHGQWIPGEVTPDFETKGLVDLPKEEHWAPLSQSPYDPDA
notes: codon-optimized, pET-28a, His6 tag, E. coli BL21 (DE3), IMAC purified, FeCl2 supplemented
Km [3]: 220 ± 46 µM | kcat [3]: 361 ± 12 s⁻¹ | Km [4]: 49 ± 9 µM | kcat [4]: 3.2 ± 0.1 s⁻¹ | Km [5]: 445 ± 125 µM | kcat [5]: 90 ± 8 s⁻¹
